# No end group written: not given here.
# How the values were obtained:
# Dpy-30 D/D (a.a. #49-99) = biological target: T1, Dpy-30 D/D (a.a. #49-99) (Homo sapiens, UniProt Q9C005); assay: Ni-NTA pulldown of GST-hAsh2 peptides with His-Dpy-30 D/D; type: binding; conditions: His-Dpy-30 D/D a.a. #49-99 co-expressed
# T1 construct: His-Dpy-30 D/D (a.a. #49-99) was co-expressed with GST-hAsh2593-623; made in house; host or cells: E. coli BL21(DE3)
# From the text: To differentiate if the interaction is via the Dpy-30 domain or the N-terminal fragment, His-Dpy-30 D/D (a.a. #49-99) was co-expressed with GST-hAsh2593-623 (FIG. 11C). To define the N-terminal end of Dpy-30 D/D binding site in hAsh2, W599 in the first potential ΦΦXX motif was mutated into P to disrupt helicity, an approach to abolish D/D-binding (Carr et al., 1982; Burns-Hamuro et al., 2003). […] Thus, the site that directly binds Dpy-30 D/D resides within hAsh2600-617 that is after W599 and contains four ΦΦXX-like motifs, even though an acidic residue occupies a supposedly hydrophobic position in the last motif, VETE (SEQ ID NO:35). The affinity may be further enhanced by adjacent sequences (Burns-Hamuro et al., 2003; Banky et al., 2003).
# (§1) All expression constructs were transformed or co-transformed into BL21(DE3) cells. The colonies were selected based on the antibiotic-resistant gene in each plasmid. The cultures were induced with 1 mM IPTG overnight at 18° C. The cell pellet from a 5-ml culture was resuspended in 750-μl lysis buffer supplemented with Complete Mini EDTA-free protease inhibitor cocktail tablets (Roche) and the suspension was sonicated on ice using Branson digital Sonifier until clarified (Emerson Industrial Automation). The sonicated mixtures were centrifuged at 4° C., 12,000 rpm for 25 min. The supernatant or combinations of supernatants as indicated were incubated with ˜100 μl Ni-NTA (Qiagen or Clontech) or Glutathione Sepharose 4B (Amersham Biosciences) for 1 hour at room temperature. The matrix was subsequently washed as instructed by manufacturers, unless indicated otherwise.
# (§2) Bacterial extract, flow through and eluate in 1× Laemmli samples buffer were boiled for 5 min. In general, 10 μl samples were loaded in each lane in 4-20% precast acrylamide gels (Bio-Rad or DGEL Electrosystem, Canada) or 14% manually cast gels.
# Dpy-30 [1] = biological target: T2, Dpy-30 (Homo sapiens, UniProt Q9C005); assay: Ni-NTA pulldown of GST-hAsh2 peptides with His-Dpy-30; type: binding; set-up: Dpy-30 fragments, full length or a.a.#49-99, were amplified using purchased IMAGE cDNA clone #4081996 as a template; made in house; host or cells: E. coli BL21(DE3); key to co-purified with Dpy-30: “+” or “−” indicates if the peptides were or were not evidently co-purified with Dpy-30; “+” or “−” indicates if the peptides were or were not evidently co-purified with Dpy-30; conditions: GST-fused hAsh2 peptides, Ni-NTA pulldown, Coomassie-stained SDS-PAGE
# T2 sequence (Q9C005 whole entry, the tested form may be a part): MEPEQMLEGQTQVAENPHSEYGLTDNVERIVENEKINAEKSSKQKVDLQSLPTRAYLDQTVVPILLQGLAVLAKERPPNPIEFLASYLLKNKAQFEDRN
# From the text: To test this, we performed pull down assays for His-Dpy-30 and GST-hAsh2593-623. The human Ash2 fragment contains a helix with two typical and three atypical ΦΦXX motifs. The hAsh2 DNA was fused downstream to GST DNA by PCR and the product was cloned into an expression vector. Three clones—#9 and #14 with the expected in-frame fusion and #6 with an out-of-frame fusion—were expressed in bacteria. Their extract was mixed with equal volume of bacterial extract with His-Dpy-30; and the mixture was subjected to Ni-NTA purification. […] Thus hAsh2593-623 interacts with Dpy-30 specifically.
# Table 3 illustrates the protein sequences of hAsh2's C-terminal region (hAsh2593-623) and its variants, where “+” or “−” indicates if the peptides were or were not evidently co-purified with Dpy-30. The shorter fusion protein GST-hAsh2593-617 that terminated right after the last possible ΦΦXX-like motif, VETE (SEQ ID NO:35), in the helix was also co-purified with His-Dpy-30 (FIG. 11B, arrow and double arrowheads), no matter expressed separately or co-expressed. Both polypeptides were depleted in the flow through of Ni-NTA matrix (Post in FIG. 11B) and retained in the eluate.
# as §1, §2
# RIIa domain from RSP7 = assay: Ni-NTA pulldown with His-tagged RIIa domain from RSP7; type: binding, Chlamydomonas; conditions: co-expressed in bacteria
# From the text: (§3) Based on the phenotypes of RSP3 transgenic strains (FIG. 4), an in vitro approach was taken to test that RSP3269-316 contains a Dpy-30 domain binding site. RIIa-binding AHs are 14-18-a.a. long. Some of AHs are clearly comprised of ΦΦXX repeats in which the first two residues are hydrophobic residues (Φ) positioned to interact with complementary residues at the binding grooves of the RIIa domain (Burns-Hamuro et al., 2003; Kinderman et al., 2006; Sarma et al., 2010), whereas for the other RIIa-binding AHs the repeats are not as evident (Gold et al., 2006; Gaillard et al., 2001). Typical ΦΦXX repeats were noted within the Dpy-30 binding fragment in BIG1 at the trans-Golgi network but were not tested yet (Xia et al., 2010). For RSP3269-316, typical and degenerate ΦΦXX repeats are present throughout this region, thus the precise Dpy-30 binding site was determined objectively by Ni-NTA pulldown. As a control, the His-tagged RIIa domain from RSP7 was co-expressed with the GST-tagged RSP396-180 that harbors AHR at a.a.#161-178 (Gaillard et al., 2001; FIG. 3) and both polypeptides were co-purified by Ni-NTA (FIG. 7A). Various Dpy-30 domain containing RSP2 and RSP23 polypeptides were tested but were not compatible for this assay due to poor expression or precipitation propensity. Therefore we used the His-tagged human Dpy-30 protein for Ni-NTA pulldown instead. As expected, both GST-RSP3245-316 and GST-RSP3269-316 were co-purified with His-Dpy-30 by Ni-NTA (FIGS. 7B and 7C). In contrast, the GST control was not co-purified (FIG. 7D).
# Based on the structural similarity, we tested for the cross-recognition of His-Dpy-30 and AHR (GST-RSP3g); and RSP7's RIIa and AHD (GST-RSP3280-308) by the described Ni-NTA pulldown assay. […] Thus Dpy-30 that has a deep pocket from an additional α-helix recognizes both AHR and AHD, whereas RSP7's RIIa, as PKA's RII, only binds RSP3's AHR(Gaillard et al., 2001). […]
# Dpy-30 [2] = biological target: T2, Dpy-30; assay: Ni-NTA pulldown of GST-tagged RSP3 peptides with His-tagged human Dpy-30 protein; type: binding; set-up: made in house; host or cells: E. coli BL21(DE3), co-expressed with the GST-RSP3 peptides; conditions: full-length human His-Dpy-30 co-expressed with GST-RSP3 peptide
# From the text: as §3
# The experiments were further conducted on smaller segments within a.a.#269-316. GST-RSP3280-316 and GST-RSP3280-308, but not GST-RSP3280-306, were also pulled down by His-Dpy-30 (FIG. 7E, left panel). […] To ensure that the co-purification occurs through the Dpy-30 domain rather than its flanking sequence, the same experiment was conducted with the Dpy-30 domain only (Dpy-3045-99, Wang et al., 2009). The results from the experiments using Dpy-30 domain alone or full-length Dpy-30 protein were similar (FIG. 7E, right panel). Based on the similar dimensions of the RIIa and Dpy-30 domains (FIG. 1), we tested if the Dpy-30 binding peptide is centered on the 18-a.a. helix at the a.a.#291-308 by mutating V300 in the middle of the region into P, a strategy used to study AHR (Gaillard et al., 2001; Carr et al., 1992). […] RSP3291-308.
# For Ni-NTA (Qiagen) affinity co-purification, GST-tagged RSP3 constructs and His-tagged HDpy-30 constructs were co-transformed into BL21(DE3) cells. The recombinant proteins were induced using 1 mM IPTG overnight at 16° C. Following induction, the cell pellet from a 5-ml culture was resuspended in 750 μl lysis buffer and sonicated using Branson digital Sonifier (Emerson Industrial Automation). The sonicated mixtures were centrifuged at 4° C., 12,000 rpm for 25 min. The supernatant was incubated with 100 μl Ni-NTA for 1 hour at room temperature. The matrix was subsequently washed thrice and elution was carried out as instructed by the manufacturer.
# T1 sequence (Q9C005 49-99): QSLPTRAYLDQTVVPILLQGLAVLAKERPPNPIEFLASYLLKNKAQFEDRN
co-purification with the Dpy-30 domain (Dpy-30 D/D (a.a. #49-99)),co-purified with Dpy-30 (Dpy-30 [1]),co-purification / pulldown with His-Dpy-30 (Dpy-30 [2]),Substance,co-purification / pulldown with His-RIIa from RSP7 (RIIa domain from RSP7)
,,pulled down,GST-RSP3280-316: GST-tagged Chlamydomonas RSP3 fragment a.a. 280-316 (PWLKEQAIGYLARGVVARRVVDKLVEDAAAALAANRS; also: GST tag),
still co-purified,−,,PMSDMGPGAVVEHTLADVLYHVETEVDGRRS [W500P],

# The next lines start with the substance.
Substance,co-purification with the Dpy-30 domain (Dpy-30 D/D (a.a. #49-99)),co-purified with Dpy-30 (Dpy-30 [1]),co-purification / pulldown with His-Dpy-30 (Dpy-30 [2]),co-purification / pulldown with His-RIIa from RSP7 (RIIa domain from RSP7)
"PMSDMGWGAVVEHTLAD----------GRRS (PMSDMGWGAVVEHTLADGRRS; also: GST fusion) [Δ610-619, GST-hAsh2593-623 with a.a. #610-619 deleted]",abolished the co-purification,−,,
"GST-RSP3280-308: GST-tagged RSP3 fragment a.a. 280-308, the Dpy-30-binding amphipathic helix AHD (PWLKEQAIGYLARGVVARRVVDKLVEDAA; also: GST-tagged (fusion))",,,pulled down,did not significantly pull down
"PMSDMGWGAVVEHTLADVLYH------GRRS (PMSDMGWGAVVEHTLADVLYHGRRS; also: GST fusion) [Δ614-619, GST-hAsh2593-623 with VETEVD deleted]",abolished the co-purification,−,,
GST-RSP3280-306: GST-tagged Chlamydomonas RSP3 fragment a.a. 280-306 (PWLKEQAIGYLARGVVARRVVDKLVED; also: GST tag),,,not,

# Source: patent US9856300B2, “Dpy-30 binding peptides and methods of use” (Marquette University, priority 2011, dated 2018)
